The target in the test is T1, BSA conjugated CD28 stalk region dimeric peptide (also: dimer through the cysteine, BSA conjugated via C-terminal Lys by hydrazide chemistry).
T1 peptide: GKHLCPSPLFPGPSKPK
The test is described as follows: ELISA. For orientation: In an ELISA, binding on a coated surface is turned into a signal by an enzyme label.

Where no end group is shown, it is not given here.

One molecule from patent publication US20220169732A1 (BIOND BIOLOGICS, published 2022) can be followed below.

B1: antibody M9 (antibody, V domains shown)
VH: DVKLVESGGGLVKLGGSLKLSCVASGFTFSSYYMSWVRQTPEKRLEWVATISDGGDNTYYAGTVTGRFTISRDFAKNTLYLQMNSLTSEDTAVYYCARIHWPYYFDSWGQGTTLTVSS
VL: QFVLSQSPAILSASPGEMLTMTCRASSSVSYMNWYQQKPGSSPKPWIYATSDLASGVPARFSGSGSGTSYSLTISRVEAEDAATYYCQQWSSHPPTFGGGTKLEIR
notes: Full-size mouse antibody raised in CD1 mice against the dimeric stalk peptide; detected with anti mouse IgG; also called clone M9; anti-cleavage antibody M9
A word on the IC50: it is the concentration that inhibits the measured activity by half. A higher IC50 goes with weaker potency in that assay. The molecule B1 registered a 50% inhibitory concentration (IC50) of 9 ng/mL.
